Results from the DeepSol protein solubility set.

Test: soluble on expression in E. coli; label from the status in PepcDB or PDB records

Sequence	soluble on expression in E. coli
GMIRVMATGVFDILHLGHIHYLKESKKLGDELVVVVARDSTARNNGKIPIFDENSRLALISELKVVDRAILGHEGDMMKTVIEVKPDIITLGYDQKFDEAELQSKINKLGITVKIVRISKYDGQLNSSSSVRKKIMELIGERY	soluble
MSLFIDAHNHLDFFEEQEKLNKALDIIKNDNIITLGCSMDTKSYKFTKSLALKNKNIIPCFGIHPSRAHENFKNLECFDEYIRESKIIGEIGLDYVWVKEKEKYPHMKRVFTYFLEEAKKYNKITNIHTKGAESEIYNYIKKYELKTPIIHWYSGDKDTLKKLLDYGCYFTISVDIGYSKLSKEIVQLLPIDKILTETDGPTSLEWVNGDYGYPNVIKNVVKEISKIKNIQEEEVKGVIENNFKTLIRKEGITLEGHHHHHH	soluble
MGSDKIHHHHHHMPKSVRAENISRILKRIMKSPVSRVELAEELGLTKTTVGEIAKIFLEKGIVVEEKDSPKGVGRPTKSLKISPNCAYVLGIEVTRDEIAACLIDASMNILAHEAHPLPSQSDREETLNVMYRIIDRAKDMMEKLGSKLSALTVAAPGPIDTERGIIIDPRNFPLSQIPLANLLKEKYGIEVWVENDADMGAVGEKWYTKRDDSFAWILTGKGIGAGIIIDGELYRGENGYAGEIGYTRVFNGNEYVFLEDVCNENVVLKHVLSMGFSSLAEARDSGDVRVKEYFDDIARYFSIGLLNLIHLFGISKIVIGGFFKELGENFLKKIKIEVETHLLYKHSVDMSFSKVQEPVIAFGAAVHALENYLERVTTS	soluble
MGSDKIHHHHHHMFLSIGTLPEDSRFHDAMVYFDMAHLSGTDRSQMLLLPEVVDDYVGPDNPVRFIEAFIDGLDLQASGFIRVEPKLTSRPGYDPADLLKLYLYGYLNRVRSSRRLEAETHRNIEVIWLLRRLTPDHKTIANFRRVNHAAFRQVFREFVILCRQLDLFGRELLAVDGTRIKAVNNKERNFTRAALTKFIREADERLTEYMKRLDNGDAQEENTGGGGPRAKNLAEKITAIKGKRDRHKALLDELDRTGEDQISLTDMDSRAMARMTKVGVGYNIQLAVDVKHKLIAEQEVSNQVVDMGLLTQATQAAMDNLGVEQIEVVADRGYFKVEDIEACEKAGITAYVPKPLRGAAVREGFFSKDEFRYNAEKDVYVCPAGEHLSPRYEKKTRDLKLVEYCNREACRSCDLKAHCTHGYRRVGRVENEAVLDRMAARLAARPEVLDQRRETVEHPFGTIKQWMYQGSFLMRRLENVQGEFSLTALAYNIRRAITLVGVAGLIGAVRA	not soluble
MIWNEHHECMGRDQLASLQGERLRQMVERIYYNVPFYRNKLQEMGIEPGDIRSIDDLKKLPFTTKQDLRDNYPFGLFAVPQQDIVRFHASSGTTGKSTVVGYTHNDIMMWSEVVARSLTMAGVTKHDIIQVAYGYGLFTGGLGLHYGAEKIGASVIPISGGNTKKQLQLLEDFGSTAIACTPSYAAYLGEAIMEEKLDRSKIKLKAGIFGAEPWTEEMRSQIQQLLGIKAYDIYGLSEVIGPGVSMECSIQHGMHVFEDHFIPEIINPETGEVLPYGELGELVFTAVTKEALPLLRYRTRDLTRLHVERCDCGRTLVRMEKCVGRSDDMLIIRGVNVFPSQVESVLLEMSETKPHYLLVVDRQNNLDTLEIQVEVEDQFFSDEVKELEGLRKRISGNLTSILGLHANVRLVEPGTIERSQGKAQRVVDKRKLNEHKETP	not soluble
GPGSMSQEGGKSEPDANEKEQRNQKLRLGLEAMFCAQEIPSEKRTDIESDGEEVPPSITRDEDRYRQVAEAILRIDTKSKIIEINNIRLFSVAEIELDKLTECTSLSLRKNLLHDLIPFPEDLADRLDELDLFDNKIRKLNDFFETVTVPGDPPTTKTLPNAYKCLTKLDLSYNQIREIGGLDSIGGTLRELYLVENKIKEVKNLDSLVNLELLELGGNRLRAIGSGLEKLTKLKQLWLGKNKISSIGTALHKLVSLEILSLQANRITSVDAENFLGAKANPNLREVYLSENGLTSVGNVRHLSTIKIIDFSFNSICSIDAEEINPQTMPKLEEFWLTDGNIADWEEVGKLSGFTSTLKTVYLERNPIEEDKRYRDKVYMYLPFLVQIDSWPIVNKGNLEADRKRKA	not soluble
MLNYELELWEKGLLVAGVDEAGRGPLAGPVVAAAVILPPFTEPFIKGDSKKLTKKEREEAYEEIKNKALAVGTAVVDSAVIDRVNILRATKLAMKRALKDLKYHYDIVITDYVKLEGENCMPLVKGDEKSLNCACASIIAKVIRDKIMEIYHKIYPDFNFASNKGYPSKTHLEKVEKGEYTEIHRKSFSPLKKKLF	soluble
MSLEDVIEQLRELNEPVPVPLELPDEDLLVEIEEQLLINLPFELREFLMKVSDVIYGSLEPVTVSDPQSHTYLPEVAAVAWDQGMPRDMVPLCQVGDDYYAVDIEGQVLLWSSDSGELSDESWDSVWHWAKDVWLASEGHHHHHH	not soluble
SLGSQSSKAPRGDVTAEEAAGASPAKANGQENGHVKSNGDLSPKGEGESPPVNGTDEAAGATGDAIEPAPPSQGAEAKGEVPPKETPKKKKKFSFKKPFKMSGMSFKRNRKEGGGDSSASSPTEEEQEQGEIGACSDEGTAQEGKAAATPESQEPQAKGAEASAASEEEAGPQATEPSTPSGPESGPTPASAEQNE	soluble
KRFEFVGWGSRQLIEFLHSLGKDTSEMISRYDVSDTIAKYISKEGLLDPSNKKKVVCDKRLVLLFGTRTIFRMKVYDLLEKHYKENQD	soluble
MTRYALLVRGINVGGKNKVVMAELRQELTNLGLEKVESYINSGNIFFTSIDSKAQLVEKLETFFAVHYPFIQSFSLLSLEDFEAELENLPAWWSRDLARKDFLFYTEGLDVDQVIATVESLELKDEVLYFGKLGIFWGKFSEESYSKTAYHKYLLKVPFYRHITIRNAKTFDKIGQMLKK	soluble
MGSDKIHHHHHHMSLPYKRWHYFNLIKNSLQKGCLKQQQTLTATTLKRNTIMTVIKQEDFIQSICDAFQFISYYHPKDYIDALYKAWQKEENPAAKDAMTQILVNSRMCAENNRPICQDTGIATVFLKVGMDVQWDADMSVEEMVNEGVRRAYTWEGNTLRASVLADPAGKRQNTKDNTPAVIHMSIVPGDKVEVTCAAKGGGSENKSKLAMLNPSDNIVDWVLKTIPTMGAGWCPPGILGIGIGGTPEKAVLMAKESLMSHIDIQELQEKAASGAELSTTEALRLELFEKVNALGIGAQGLGGLTTVLDVKILDYPTHAASKPIAMIPNCAATRHVEFELDGSGPVELTPPRVEDWPDLTYSPDNGKRVDVDKLTKEEVASWKTGDVLLLNGKILTGRDAAHKRLVDMLDKGEELPVDFTNRLIYYVGPVDPVGDEIVGPAGPTTATRMDKFTRQMLEQTDLLGMIGKSERGAATCEAIADNKAVYLMAVGGAAYLVAKAIKSSKVLAFPELGMEAIYEFEVKDMPVTVAVDSKGESIHATAPPQWQAKIGIIPVKS	not soluble
MTNDKMLARIAALLRQAEGTDNPHEADAFMSTAQRLATAASIDLAVARSHAGNRSPAQAPTQRTITIGAAGTRGLRTYVQLFVLIAAANDVRCDVASNSTFVYAYGFAEDIDTSHALYASLVVQMVRASDAYLASGAHRPTPTITARLNFQLAFGARVGQRLADAREQTRQEATKDRDRPPGTAIALRDKDIELHEYYRRSSKARGAWRASRATAGYSSAARRAGDRAGRQARLGNNPELPGARAALGR	soluble
MAMSNMTYNNVFDHAYEMLKENIRYDDIRDTDDLHDAIHMAADNAVPHYYADIFSVMASEGIDLEFEDSGLMPDTKDVIRILQARIYEQLTIDLWEDAEDLLNEYLEEVEEYEEDEE	soluble
MENLKNYFDVVIIGAGPAGLFAAYELSKYDNLKTVVIDRGKDVLERHCAAEKLKKCIKCNPCQIMYGVGGAGGLSDGTLNLRPDIGGNLAEITNNENYAWQLIFEVDKIFLEHGGPKKLFKGSFEKIKGLQRRSAQNGVRFIPIIQRHIGSDHTKQLINNIKTTLQNRGVEFLLNTEVFKFEKNKVFVNISGKKEEINAKYIIVAPGRGNAEWFLKISEKIGLISNHGPIDVGVRVEVPSIIMESITEINHDPKFHIYTDTYDDFVRTFCTNPYGFVVEENYGDIIGVNGHSMVDKKSENTNFSFLTRIELTEPVENTTSYGKSIAKLTTTLGGGKPILQRLGDLKRGRRSTWDRLKKSSFDPTLKQVTPGDIAMALPHRIVTNIIEGLEKLDKVIPGVSNDHTLLYAPEIKYYAMKTKVNDDLETSILNIFAAGDGAGLSRDITNSCATGMLAARGILKKEGITDIFKDENTNWQEKVESMKLEHHHHHH	soluble
PHSPLAEGRREVAKVLTMASEALTQVSTAMRTGDVDGIREALRKARGSQAAINAMIAAAKSGQEEVAVSPFLWSSKARVRSFVRILHPVDNAMRNTRVLARRAQVLIEDGDEVSEAQIQLIDDLVSVTSAVAAIYDRRGAASEAAEIPELVRTLQTMAARAGLSVAEGKVLSAQVVLAQTRSIIVDLLQVCGMSRASAVASLALTSESPAYPSEIRDDPNH	soluble
MITVVIADRLGKGQNVAKGVEQAGGRAVVVPGMGADMRLGDVMQQEKADLGISFCGSGGAGALTAATKYGYPERHGMRSIEEGVTAINDGKTVLGFGFMDQEELGKRVTEAFIKKHGA	not soluble
GPGSMTSVETRIQALVQRYTLMENNINKLRKALASLGEGQQNANTTPRNEATAVAHHRDPCDLKELQPCPQDTPEVAALRRWCIEHSLTTAVFRWVPSDYYQHTLQWRRDELAAPSVHHLCKSILMENTHCTNKDCGVRENSRYYLIVYPYTEKFDAEMVMRHVKGLNEGLGKKKFNFRLAAPDVALQLTGFGHGAVAPFGTPTEIPVILSDKILQLTPAVFWMGGGHVDCKVRVDVEQFMEVIKPIVASVTTPLSAEELGQLVD	soluble
MGSDKIHHHHHHMSNFGRQIEAFRAVMLTGGMTTAAETLRITQPAISRLIRDLEDDLKIALFHRRGNQITPTVEATAFLAEVERSYLGMDQLRTFAVDLRNSLTGSLRIAALPAMALGFMPYCLAKFSGTRPKLSITLDGIPSHLVLERVAGGQFELGFAAVPADRPMLNTTPIKARAVVVMPEGHPLAKNETVSADQLRNERIVMLDRGNYLRHTIERALGTRAGSPGAIETPLSAIACSFVARGLGVTIIDAFTAINFLGRGIEARLLVPELDFGFAMVTAQQRPMSQLARQFAQEIHLLAEEYQSPIFG	not soluble
MPQIQSSHSNHFDFTIDTADRTKLLMSYLVVPTTANFNNVMHGGELLNLLDKVAYVCSTRYCAKGTVTLSVDGVTFKYPIPVGNLLTFLASINYVGNTSCEVGIKVLSEDIKTREITHTNSCYFTMVAVENGKPTPMPKYEPKTEVEIRRYEGALKRKEMRTRGYLKSGKHEGVLEHHHHHH	not soluble
MEAAASEPSLDLDNLKLLELIGRGRYGAVYKGSLDERPVAVKVFSFANRQNFINEKNIYRVPLMEHDNIARFIVGDERVTADGRMEYLLVMEYYPNGSLCKYLSLHTSDWVSSCRLAHSVTRGLAYLHTELPRGDHYKPAISHRDLNSRNVLVKNDGTCVISDFGLSMRLTGNRLVRPGEEDNAAISEVGTIRYMAPEVLEGAVNLRDCESALKQVDMYALGLIYWEIFMRCTDLFPGESVPEYQMAFQTEVGNHPTFEDMQVLVSREKQRPKFPEAWKENSLAVRSLKETIEDCWDQDAEARLTAQCAEERMAELMMIWERNKSVSPTAHHHHHH	soluble
MSLFYYIVDDDEVFRSMLSQIIEDGDLGEVIGESEDGAFVEAEQLNYKKVDILFIDLLMPMRDGIETVRHIASSFTGKIIMISQVESKQLIGEAYTLGVEYYITKPLNKIEVVSVVRKVIERIRLERSIYDIQKSLNNVFQWEKPQMRSETVQEEKKISDSGRFLLAELGIAGENGSKDLLSMLEYLYGQEKAQTFEFGFPALKDIFHQITLKKLGEIASDADIEKEKKASEQRVRRAIYQSLNHLASLGLTDFSNPKFESYAPKFFDFTVVRKRMTEMTKDGVATSGHIRINTKKFIQVLYFEAKRLMEIEEGHHHHHH	soluble
